The chains are these.
T1: VEGFR-3-Fc (UniProt P35916 25-328)
T1 construct: domain: first three Ig domains; conditioned supernatant of 293T cells; also called VEGFR-3-Fc fusion protein; not shown: Fc fragment of the pIg vector
T1 sequence (looked up): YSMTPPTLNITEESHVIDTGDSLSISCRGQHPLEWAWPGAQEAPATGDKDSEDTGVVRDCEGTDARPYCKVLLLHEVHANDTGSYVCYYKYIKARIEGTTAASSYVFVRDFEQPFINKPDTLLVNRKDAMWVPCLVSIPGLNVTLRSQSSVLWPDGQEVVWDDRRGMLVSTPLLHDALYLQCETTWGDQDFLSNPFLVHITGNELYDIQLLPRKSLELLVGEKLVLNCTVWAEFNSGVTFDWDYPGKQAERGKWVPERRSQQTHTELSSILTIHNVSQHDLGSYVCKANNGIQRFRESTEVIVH

B1: 84-1 (ligand)
chain: AHYNTEILKFMDVYQRSYCHPIETLVDIFQEFGVATNTFFKPSCVPLMRCGGCCNDEGLECVPTEESNITMQIMRIKPHQGQHIGEMSFLQHNKCECRPKKD
B2: 84-5 (ligand)
chain: B1 chain with L90A, Q91N, N93T, K94S, E96R, R98M, P99S, K101L
B3: 84-3 (ligand)
chain: B1 chain with D56S, E60Q
B4: 11-1 (ligand)
chain: GQNHHEVVKFMDVYQRSYCHPIETLVDIFQEYPDEIEYIFKPSCVPLMRCGGCCNDEGLECVPTEESNITMQIMRIKPHQGQHIGEMSFLQHNKCECRPKKDLVFEQKLISEEDLNSAVDHHHHHH
B5: 22-3 (ligand)
chain: AHYNTEILKSIDNEWRKTQCMPREVCIDVGKEFGVATNTFFKPPCVSVYRCGGCCNSEGLQCVPTEESNITMQIMRIKPHQGQHIGEMSFLQHNKCECRPKKD
B6: 72-2 (ligand)
chain: GQNHHEVVKSIDNEWRKTQCMPREVCIDVGKEFGVATNTFFKPPCVSVYRCGGCCNDEGLECMNTSTSYLSKTLFEIKPHQGQHIGEMSFLQHNKCECRPKKD
B7: 72-8 (ligand)
chain: B6 chain with D57S, E61Q, L91A, Q92N, N94T, K95S, E97R, R99M, P100S, K102L
B8: 72-4 (ligand)
chain: B6 chain with D57S, E61Q
B9: 72-6 (ligand)
chain: B6 chain with L91A, Q92N, N94T, K95S, E97R, R99M, P100S, K102L
B10: 22-4 (ligand)
chain: B6 chain with G1A, Q2H, N3Y, H4N, H5T, V7I, V8L, D57S, E61Q
B11: 14-9 (ligand)
chain: GQNHHEVVKFMDVYQRSYCHPIETLVDIFQEFGVATNTFFKPSCVPLMRCGGCCNDEGLECVPTEESNITMQIMRITVPLSQGPKPVTISFLQHNKCECRPKKDL
notes: clone entry
B12: 84-11 (ligand)
chain: B11 chain with G1A, Q2H, N3Y, H4N, H5T, V7I, V8L, D56S, E60Q
notes: clone entry
B13: 84-9 (ligand)
chain: B11 chain with G1A, Q2H, N3Y, H4N, H5T, V7I, V8L
notes: clone entry
B14: 82-13 (ligand)
chain: AHYNTEILKFMDVYQRSYCHPIETLVDIFQEFGVATNTFFKPPCVSVYRCGGCCNDEGLECVPTEESNITMQIMRITVPLSQGPKPVTISFANHTSCRCMSKLDL
notes: clone entry
B15: 82-11 (ligand)
chain: B14 chain with D56S, E60Q, A92L, N93Q, T95N, S96K, R98E, M100R, S101P, L103K
notes: clone entry
B16: 82-14 (ligand)
chain: AHYNTEILKFMDVYQRSYCHPIETLVDIFQEFGVATNTFFKPPCVSVYRCGGCCNDEGLECMNTSTSYLSKTLFEITVPLSQGPKPVTISFANHTSCRCMSKLD
B17: 82-16 (ligand)
chain: B16 chain with D56S, E60Q
B18: 72-10 (ligand)
chain: GQNHHEVVKSIDNEWRKTQCMPREVCIDVGKEFGVATNTFFKPPCVSVYRCGGCCNDEGLECMNTSTSYLSKTLFEITVPLSQGPKPVTISFLQHNKCECRPKKD
B19: 72-12 (ligand)
chain: B18 chain with D57S, E61Q
B20: 82-15 (ligand)
chain: AHYNTEILKFMDVYQRSYCHPIETLVDIFQEFGVATNTFFKPPCVSVYRCGGCCNSEGLQCVPTEESNITMQIMRITVPLSQGPKPVTISFANHTSCRCMSKLD
B21: 11-9 (ligand)
chain: GQNHHEVVKFMDVYQRSYCHPIETLVDIFQEYPDEIEYIFKPSCVPLMRCGGCCNDEGLECVPTEESNITMQIMRITVPLSQGPKPVTISFLQHNKCECRPKKD
B22: 11-11 (ligand)
chain: B21 chain with D56S, E60Q
B23: 61-15 (ligand)
chain: GQNHHEVVKFMDVYQRSYCHPREVCIDVGKEYPDEIEYIFKPSCVPLMRCGGCCNSEGLQCVPTEESNITMQIMRITVPLSQGPKPVTISFANHTSCRCMSKLD
B24: 11-3 (ligand)
chain: GQNHHEVVKFMDVYQRSYCHPIETLVDIFQEYPDEIEYIFKPSCVPLMRCGGCCNSEGLQCVPTEESNITMQIMRIKPHQGQHIGEMSFLQHNKCECRPKKD
B25: 11-5 (ligand)
chain: B24 chain with S56D, Q60E, L90A, Q91N, N93T, K94S, E96R, R98M, P99S, K101L
B26: 11-7 (ligand)
chain: B24 chain with L90A, Q91N, N93T, K94S, E96R, R98M, P99S, K101L

Numbering of substitutions follows the chain as printed.

The target in one test is T2, VEGFR-2-Fc (UniProt P35968 20-322).
T2 construct: domain: first 3 Ig domains; conditioned supernatant of 293T cells; also called VEGFR-2-Fc fusion protein; not shown: Fc fragment of the pIg vector
T2 sequence (P35968 20-322): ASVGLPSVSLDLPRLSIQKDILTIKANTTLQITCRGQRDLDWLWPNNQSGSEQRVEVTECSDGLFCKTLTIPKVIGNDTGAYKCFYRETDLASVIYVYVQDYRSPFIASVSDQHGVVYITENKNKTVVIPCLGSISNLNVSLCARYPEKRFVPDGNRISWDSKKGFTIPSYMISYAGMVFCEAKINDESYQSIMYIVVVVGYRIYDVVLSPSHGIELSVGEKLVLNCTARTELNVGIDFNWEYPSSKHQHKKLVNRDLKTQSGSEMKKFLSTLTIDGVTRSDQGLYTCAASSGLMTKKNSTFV
The test can be described thus: receptor-Fc IP. A digest of the protocol:
(§1)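 Binding of ligand from sample supernatant measured by pentahistidine-antibody immunoprecipitation. IP mix: PBS with 1.5% BSA, 0.06% Tween 20, 3 μg/ml heparin and 400 ng/ml fusion protein, added 1:2 to sample supernatant.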
In the case of B1, the binding result is “no binding”.
Still for that read-out and setting: under B2 stands “no binding”; under B3, “binds”.
With B4, the binding result is recorded as “binds”.
On the same count and under the same terms, under B5 stands “no binding”; under B6, “binds”; under B7, “binds”.
Still for that read-out and setting: under B8 stands “binds”; under B9, “no binding”.
The same measure, in the same setting: under B10 stands “binds”; under B11, “binds”; under B12, “binds”.
For B13, the binding result is listed as “binds”.
Turning to B14, the binding result is “no binding”.
Take B15: the binding result is “binds”.
In the case of B16, the binding result is listed as “no binding”.
On the same count and under the same terms, under B17 stands “no binding”; under B18, “binds”; under B19, “binds”.
Same read-out and setting: under B20 stands “binds”; under B21, “no binding”; under B22, “binds”.
Still for that read-out and setting: next, B23: “no binding”; B24: “binds”; B25: “binds”.
With B26, the binding result is given as “binds”.

The target of another test is T3, VEGFR-1-Fc (UniProt P17948 27-338).
T3 construct: domain: first three Ig domains; expressed in Drosophila S2 cells, purified on Protein A sepharose; also called VEGFR-1-Fc fusion protein; not shown: Fc fragment from the Signal-pIgPlus vector
T3 sequence (P17948 27-338): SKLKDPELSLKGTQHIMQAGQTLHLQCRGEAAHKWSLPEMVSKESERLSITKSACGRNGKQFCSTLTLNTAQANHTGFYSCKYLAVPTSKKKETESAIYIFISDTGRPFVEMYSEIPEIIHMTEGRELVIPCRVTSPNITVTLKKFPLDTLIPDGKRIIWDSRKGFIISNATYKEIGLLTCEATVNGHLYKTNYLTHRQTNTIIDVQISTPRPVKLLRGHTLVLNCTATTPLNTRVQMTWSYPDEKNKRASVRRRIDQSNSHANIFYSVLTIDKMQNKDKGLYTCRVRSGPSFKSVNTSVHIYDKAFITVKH
The test can be described thus: receptor-Fc IP. The method, boiled down:
as §1
Turning to B1, the binding result is on record as “binds”.
Still for that read-out and setting: under B2 stands “binds”; under B3, “binds”.
For the molecule B4, the binding result is reported as “binds”.
On the same count and under the same terms, under B5 stands “no binding”.
On the same count and under the same terms, next, B6: “no binding”.
On the same count and under the same terms, under B7 stands “no binding”; under B8, “no binding”.
For B9, the binding result is reported as “no binding”.
The same measure, in the same setting: next, B10: “no binding”; B11: “binds”; B12: “binds”.
On the same count and under the same terms, under B13 stands “binds”.
The same measure, in the same setting: under B14 stands “binds”; under B15, “binds”.
Consider B16, for which the binding result was “no binding”.
Still for that read-out and setting: under B17 stands “no binding”; under B18, “no binding”; under B19, “no binding”.
The same measure, in the same setting: next, B20: “no binding”; B21: “binds”; B22: “binds”.
On the same count and under the same terms, next, B23: “no binding”.
Turning to B24, the binding result was “binds”.
On the same count and under the same terms, under B25 stands “binds”; under B26, “binds”.

For a further test, the target named is T1, VEGFR-3-Fc. The test can be described thus: receptor-Fc IP. The method, boiled down: as §1
Consider B1, for which the binding result is given as “no binding”.
Same read-out and setting: next, B2: “no binding”.
On to B3, for which the binding result is listed as “no binding”.
For B4, the binding result is “no binding”.
On the same count and under the same terms, under B5 stands “binds”; under B6, “binds”; under B7, “binds”.
On the same count and under the same terms, next, B8: “binds”; B9: “binds”; B10: “binds”.
Still for that read-out and setting: under B11 stands “binds”; under B12, “binds”.
In the case of B13, the binding result is listed as “binds”.
Still for that read-out and setting: under B14 stands “binds”; under B15, “binds”.
B16: the binding result is listed as “binds”.
Same read-out and setting: next, B17: “binds”; B18: “binds”.
The same measure, in the same setting: next, B19: “binds”; B20: “binds”.
On the same count and under the same terms, next, B21: “no binding”.
Take B22: the binding result was “no binding”.
On the same count and under the same terms, next, B23: “no binding”; B24: “no binding”; B25: “no binding”.
The same measure, in the same setting: next, B26: “no binding”.

Values taken from US20080058263A1 (published 2008).
